Measured values taken from paper PMC4629521.

Legend:
[1] = target: P1Ara, TOMP1 partially dearabinosylated by alpha-L-arabinofuranosidase (tomato); assay: cross-linking + SEC
[2] = target: P1pH2, TOMP1 partially dearabinosylated by pH 2.0 HCl (tomato); assay: cross-linking + SEC
Q9FS16 = assay: cross-linking + SEC
[3] = target: RSH, monomeric extensin from Arabidopsis (native) (Arabidopsis) (UniProt Q9FS16); assay: cross-linking + SEC
[4] = target: RSHAra, RSH partially dearabinosylated by alpha-L-arabinofuranosidase (Arabidopsis) (UniProt Q9FS16); assay: cross-linking + SEC
[5] = target: RSHpH2, RSH partially dearabinosylated by pH 2.0 HCl (Arabidopsis) (UniProt Q9FS16); assay: cross-linking + SEC
[6] = target: TOMP1, tomato extensin precursor 1 (native) (tomato); assay: cross-linking + SEC

P1Ara, TOMP1 partially dearabinosylated by alpha-L-arabinofuranosidase
monomer peak area loss (5~30 min XL) (cross-linking + SEC): 24.9%

P1Ara, TOMP1 partially dearabinosylated by alpha-L-arabinofuranosidase (natural protein)
initial cross-linking rate [1]: 28.5 µg/mL⋅min

P1pH2, TOMP1 partially dearabinosylated by pH 2.0 HCl
monomer peak area loss (5~30 min XL) (cross-linking + SEC): 54.2%

P1pH2, TOMP1 partially dearabinosylated by pH 2.0 HCl (natural protein)
initial cross-linking rate [2]: 95.3 µg/mL⋅min

RSH, monomeric extensin from Arabidopsis (native)
monomer peak area loss (5~30 min XL) (Q9FS16): 80.3%

RSH, monomeric extensin from Arabidopsis (native) (from UniProt Q9FS16 28-431) (natural protein)
initial cross-linking rate [3]: 269 µg/mL⋅min

RSHAra, RSH partially dearabinosylated by alpha-L-arabinofuranosidase
monomer peak area loss (5~30 min XL) (Q9FS16): 40.1%

RSHAra, RSH partially dearabinosylated by alpha-L-arabinofuranosidase (from UniProt Q9FS16 28-431) (natural protein)
initial cross-linking rate [4]: 85 µg/mL⋅min

RSHpH2, RSH partially dearabinosylated by pH 2.0 HCl
monomer peak area loss (5~30 min XL) (Q9FS16): 74.2%

RSHpH2, RSH partially dearabinosylated by pH 2.0 HCl (from UniProt Q9FS16 28-431) (natural protein)
initial cross-linking rate [5]: 223 µg/mL⋅min

TOMP1, tomato extensin precursor 1 (native)
monomer peak area loss (5~30 min XL) (cross-linking + SEC): 73.9%

TOMP1, tomato extensin precursor 1 (native) (natural protein)
initial cross-linking rate [6]: 213 µg/mL⋅min
